# B1: SLC1A4, P43007 (peptide)
# chain: PELESKESVL
# B2: BCR, P11274 (peptide)
# chain: RQSILFSTEV
# B3: FAT1, Q14517 (peptide)
# chain: PLDSQQHTEV
# Biological target: T1, DFNB31_2, Q9P202
# T1 sequence (Q9P202 274-371, limits assumed, looked up): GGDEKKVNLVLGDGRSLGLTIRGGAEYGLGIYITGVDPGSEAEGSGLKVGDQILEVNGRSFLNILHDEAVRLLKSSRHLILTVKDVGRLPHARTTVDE
# Assay: holdup assay
# Parameters: key: below the threshold = too weak to quantify, mostly under pKd 3.1 to 4
# Settings: plain residues with an end cap or a label only (N-terminal biotin on a linker: ado-ado)
row,Binder,pKd
1,B1,3.5
2,B2,below the threshold
3,B3,below the threshold

# Biological target: T2, DFNB31_3, Q9P202
# T2 sequence (Q9P202 811-907, limits assumed, looked up): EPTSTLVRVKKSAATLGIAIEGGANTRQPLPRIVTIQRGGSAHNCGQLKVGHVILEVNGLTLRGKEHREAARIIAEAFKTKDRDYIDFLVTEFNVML
# Assay: holdup assay
# Parameters: key: below the threshold = too weak to quantify, mostly under pKd 3.1 to 4
# Settings: plain residues with an end cap or a label only (N-terminal biotin on a linker: ado-ado)
row,Binder,pKd
1,B1,below the threshold
2,B2,below the threshold
3,B3,below the threshold

# Biological target: DLG1_1, Q12959
# Assay: holdup assay
# Parameters: key: below the threshold = too weak to quantify, mostly under pKd 3.1 to 4
# Settings: plain residues with an end cap or a label only (N-terminal biotin on a linker: ado-ado)
row,Binder,pKd
1,B1,3.51
2,B2,4.64
3,B3,4.37

# Biological target: T3, DLG3_3, Q92796
# T3 sequence (Q92796 374-475, limits assumed, looked up): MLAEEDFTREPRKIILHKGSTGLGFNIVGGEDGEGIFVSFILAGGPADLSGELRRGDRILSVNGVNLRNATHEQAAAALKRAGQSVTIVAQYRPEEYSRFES
# Assay: holdup assay
# Parameters: key: below the threshold = too weak to quantify, mostly under pKd 3.1 to 4
# Settings: plain residues with an end cap or a label only (N-terminal biotin on a linker: ado-ado)
row,Binder,pKd
1,B1,below the threshold
2,B2,3.86
3,B3,below the threshold

# Biological target: T4, GRIP1_4, Q9Y3R0
# T4 sequence (Q9Y3R0 467-571, limits assumed, looked up): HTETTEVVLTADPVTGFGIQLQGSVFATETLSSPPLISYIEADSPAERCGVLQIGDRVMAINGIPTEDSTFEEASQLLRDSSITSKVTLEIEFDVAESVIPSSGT
# Assay: holdup assay
# Parameters: key: below the threshold = too weak to quantify, mostly under pKd 3.1 to 4
# Settings: plain residues with an end cap or a label only (N-terminal biotin on a linker: ado-ado)
row,Binder,pKd
1,B1,below the threshold
2,B2,below the threshold
3,B3,below the threshold

# Biological target: T5, GRIP1_5, Q9Y3R0
# T5 sequence (Q9Y3R0 568-668, limits assumed, looked up): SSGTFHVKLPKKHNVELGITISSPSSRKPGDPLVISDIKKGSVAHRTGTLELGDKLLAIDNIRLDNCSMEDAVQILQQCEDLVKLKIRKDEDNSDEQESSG
# Assay: holdup assay
# Parameters: key: below the threshold = too weak to quantify, mostly under pKd 3.1 to 4
# Settings: plain residues with an end cap or a label only (N-terminal biotin on a linker: ado-ado)
row,Binder,pKd
1,B1,below the threshold
2,B2,below the threshold
3,B3,below the threshold

# Biological target: GRIP2_5, Q9C0E4
# Sequence (Q9C0E4 544-642): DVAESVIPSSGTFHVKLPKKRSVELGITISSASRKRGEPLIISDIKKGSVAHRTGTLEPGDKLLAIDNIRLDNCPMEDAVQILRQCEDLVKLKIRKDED
# Assay: holdup assay
# Parameters: key: below the threshold = too weak to quantify, mostly under pKd 3.1 to 4
# Settings: plain residues with an end cap or a label only (N-terminal biotin on a linker: ado-ado)
row,Binder,pKd
1,B1,below the threshold
2,B2,below the threshold
3,B3,below the threshold

# Biological target: Inadl_2, Q8NI35
# Sequence (Q8NI35 238-335): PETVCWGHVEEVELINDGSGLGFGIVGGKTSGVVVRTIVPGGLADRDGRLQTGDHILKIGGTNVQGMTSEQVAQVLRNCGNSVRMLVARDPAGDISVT
# Assay: holdup assay
# Parameters: key: below the threshold = too weak to quantify, mostly under pKd 3.1 to 4
# Settings: plain residues with an end cap or a label only (N-terminal biotin on a linker: ado-ado)
row,Binder,pKd
1,B1,below the threshold
2,B2,below the threshold
3,B3,below the threshold

# Biological target: T6, LIN7B, Q9HAP6
# T6 sequence (Q9HAP6 88-185, limits assumed, looked up): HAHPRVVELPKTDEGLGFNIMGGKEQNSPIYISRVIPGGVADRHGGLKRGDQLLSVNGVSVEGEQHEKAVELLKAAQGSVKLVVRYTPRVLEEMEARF
# Assay: holdup assay
# Parameters: key: below the threshold = too weak to quantify, mostly under pKd 3.1 to 4
# Settings: plain residues with an end cap or a label only (N-terminal biotin on a linker: ado-ado)
row,Binder,pKd
1,B1,below the threshold
2,B2,below the threshold
3,B3,below the threshold

# Biological target: LNX1_3, Q8TBB1
# Sequence (Q8TBB1 500-596): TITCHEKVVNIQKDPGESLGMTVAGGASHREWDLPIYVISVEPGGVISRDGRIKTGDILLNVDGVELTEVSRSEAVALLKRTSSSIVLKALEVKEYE
# Assay: holdup assay
# Parameters: key: below the threshold = too weak to quantify, mostly under pKd 3.1 to 4
# Settings: plain residues with an end cap or a label only (N-terminal biotin on a linker: ado-ado)
row,Binder,pKd
1,B1,below the threshold
2,B2,3.64
3,B3,below the threshold

# Biological target: T7, LRRC7, Q96NW7
# T7 sequence (Q96NW7 1440-1537, limits assumed, looked up): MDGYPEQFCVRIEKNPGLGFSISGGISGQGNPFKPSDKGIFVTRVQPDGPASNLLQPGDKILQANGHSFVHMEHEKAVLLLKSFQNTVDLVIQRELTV
# Assay: holdup assay
# Parameters: key: below the threshold = too weak to quantify, mostly under pKd 3.1 to 4
# Settings: plain residues with an end cap or a label only (N-terminal biotin on a linker: ado-ado)
row,Binder,pKd
1,B1,3.53
2,B2,3.88
3,B3,below the threshold

# Biological target: MAST2, Q6P0Q8
# Sequence (Q6P0Q8 1099-1202): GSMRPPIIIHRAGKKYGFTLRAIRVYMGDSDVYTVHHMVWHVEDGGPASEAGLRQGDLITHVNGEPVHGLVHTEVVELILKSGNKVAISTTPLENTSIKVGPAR
# Assay: holdup assay
# Parameters: key: below the threshold = too weak to quantify, mostly under pKd 3.1 to 4
# Settings: plain residues with an end cap or a label only (N-terminal biotin on a linker: ado-ado)
row,Binder,pKd
1,B1,5.21
2,B2,5.4
3,B3,5.21

# Biological target: T8, MPDZ_12, O75970
# T8 sequence (O75970 1857-1958, limits assumed, looked up): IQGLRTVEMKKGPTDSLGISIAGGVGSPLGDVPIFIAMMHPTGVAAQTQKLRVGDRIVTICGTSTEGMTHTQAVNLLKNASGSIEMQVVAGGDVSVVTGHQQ
# Assay: holdup assay
# Parameters: key: below the threshold = too weak to quantify, mostly under pKd 3.1 to 4
# Settings: plain residues with an end cap or a label only (N-terminal biotin on a linker: ado-ado)
row,Binder,pKd
1,B1,below the threshold
2,B2,4.41
3,B3,below the threshold

# Biological target: T9, MPP2, Q14168
# T9 sequence (Q14168 180-250, limits assumed, looked up): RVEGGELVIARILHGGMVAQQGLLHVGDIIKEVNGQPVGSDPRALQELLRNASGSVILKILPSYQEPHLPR
# Assay: holdup assay
# Parameters: key: below the threshold = too weak to quantify, mostly under pKd 3.1 to 4
# Settings: plain residues with an end cap or a label only (N-terminal biotin on a linker: ado-ado)
row,Binder,pKd
1,B1,below the threshold
2,B2,below the threshold
3,B3,below the threshold

# Biological target: NHERF2_2, Q15599
# Sequence (Q15599 142-238): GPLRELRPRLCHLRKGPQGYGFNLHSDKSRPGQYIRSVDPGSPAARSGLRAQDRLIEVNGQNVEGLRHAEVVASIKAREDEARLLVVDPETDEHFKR
# Assay: holdup assay
# Parameters: key: below the threshold = too weak to quantify, mostly under pKd 3.1 to 4
# Settings: plain residues with an end cap or a label only (N-terminal biotin on a linker: ado-ado)
row,Binder,pKd
1,B1,4.4
2,B2,below the threshold
3,B3,below the threshold

# Biological target: T10, NHERF3_4, Q5T2W1
# T10 sequence (Q5T2W1 373-468, limits assumed, looked up): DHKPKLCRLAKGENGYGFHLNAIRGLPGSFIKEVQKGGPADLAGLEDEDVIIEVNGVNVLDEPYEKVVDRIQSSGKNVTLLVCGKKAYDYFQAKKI
# Assay: holdup assay
# Parameters: key: below the threshold = too weak to quantify, mostly under pKd 3.1 to 4
# Settings: plain residues with an end cap or a label only (N-terminal biotin on a linker: ado-ado)
row,Binder,pKd
1,B1,below the threshold
2,B2,4.37
3,B3,below the threshold

# Biological target: T11, PARD3B_1, Q8TEW8
# T11 sequence (Q8TEW8 196-299, limits assumed, looked up): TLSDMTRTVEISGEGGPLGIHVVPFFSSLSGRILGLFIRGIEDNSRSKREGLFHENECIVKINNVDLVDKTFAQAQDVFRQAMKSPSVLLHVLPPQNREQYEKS
# Assay: holdup assay
# Parameters: key: below the threshold = too weak to quantify, mostly under pKd 3.1 to 4
# Settings: plain residues with an end cap or a label only (N-terminal biotin on a linker: ado-ado)
row,Binder,pKd
1,B1,4.21
2,B2,below the threshold
3,B3,below the threshold

# Biological target: T12, PDZD2_2, O15018
# T12 sequence (O15018 329-429, limits assumed, looked up): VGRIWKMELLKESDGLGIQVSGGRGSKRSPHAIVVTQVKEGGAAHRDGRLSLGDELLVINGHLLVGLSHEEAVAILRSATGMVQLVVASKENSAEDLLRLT
# Assay: holdup assay
# Parameters: key: below the threshold = too weak to quantify, mostly under pKd 3.1 to 4
# Settings: plain residues with an end cap or a label only (N-terminal biotin on a linker: ado-ado)
row,Binder,pKd
1,B1,4.16
2,B2,4.76
3,B3,4.79

# Biological target: PDZRN4_1, Q6ZMN7
# Sequence (Q6ZMN7 213-318): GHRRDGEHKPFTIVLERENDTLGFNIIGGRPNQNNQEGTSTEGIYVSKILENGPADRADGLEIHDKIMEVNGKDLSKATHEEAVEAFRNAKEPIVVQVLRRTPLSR
# Assay: holdup assay
# Parameters: key: below the threshold = too weak to quantify, mostly under pKd 3.1 to 4
# Settings: plain residues with an end cap or a label only (N-terminal biotin on a linker: ado-ado)
row,Binder,pKd
1,B1,4.66
2,B2,3.78
3,B3,3.81

# Biological target: T13, RAPGEF6, Q8TEU7
# T13 sequence (Q8TEU7 525-625, limits assumed, looked up): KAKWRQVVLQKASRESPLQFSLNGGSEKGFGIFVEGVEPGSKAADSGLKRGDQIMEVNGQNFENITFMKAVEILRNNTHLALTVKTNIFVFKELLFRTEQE
# Assay: holdup assay
# Parameters: key: below the threshold = too weak to quantify, mostly under pKd 3.1 to 4
# Settings: plain residues with an end cap or a label only (N-terminal biotin on a linker: ado-ado)
row,Binder,pKd
1,B1,below the threshold
2,B2,below the threshold
3,B3,below the threshold

# Biological target: SCRIB_1, Q14160
# Sequence (Q14160 718-814): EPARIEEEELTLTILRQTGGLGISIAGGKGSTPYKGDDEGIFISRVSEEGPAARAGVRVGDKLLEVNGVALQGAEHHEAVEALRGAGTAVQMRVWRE
# Assay: holdup assay
# Parameters: key: below the threshold = too weak to quantify, mostly under pKd 3.1 to 4
# Settings: plain residues with an end cap or a label only (N-terminal biotin on a linker: ado-ado)
row,Binder,pKd
1,B1,4.18
2,B2,4.69
3,B3,4.12

# Biological target: SCRIB_3, Q14160
# Sequence (Q14160 999-1103): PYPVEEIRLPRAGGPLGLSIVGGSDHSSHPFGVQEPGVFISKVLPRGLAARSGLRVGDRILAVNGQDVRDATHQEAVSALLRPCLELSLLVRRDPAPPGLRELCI
# Assay: holdup assay
# Parameters: key: below the threshold = too weak to quantify, mostly under pKd 3.1 to 4
# Settings: plain residues with an end cap or a label only (N-terminal biotin on a linker: ado-ado)
row,Binder,pKd
1,B1,4.7
2,B2,4.58
3,B3,4.2

# Biological target: SNX27, Q96L92
# Assay: holdup assay
# Parameters: key: below the threshold = too weak to quantify, mostly under pKd 3.1 to 4
# Settings: plain residues with an end cap or a label only (N-terminal biotin on a linker: ado-ado)
row,Binder,pKd
1,B1,5.43
2,B2,4.89
3,B3,4.7

# Biological target: TJP2_1, Q9UDY2
# Sequence (Q9UDY2 24-128): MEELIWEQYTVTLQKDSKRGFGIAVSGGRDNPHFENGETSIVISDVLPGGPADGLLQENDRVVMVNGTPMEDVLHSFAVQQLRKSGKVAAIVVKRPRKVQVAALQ
# Assay: holdup assay
# Parameters: key: below the threshold = too weak to quantify, mostly under pKd 3.1 to 4
# Settings: plain residues with an end cap or a label only (N-terminal biotin on a linker: ado-ado)
row,Binder,pKd
1,B1,below the threshold
2,B2,3.69
3,B3,below the threshold
